Assay results: patent publication US10253076B2, “Peptides and combination of peptides for use in immunotherapy against ovarian cancer and other cancers” (immatics biotechnologies GmbH, priority 2015, dated 2019)

What follows are substances tested against HLA-A*02:01 (Homo sapiens, UniProt P04439, D140Y/D185E/D98H/E176V/E277Q/G131W/G231S/I119V/I121R/I166T/I218V/L300P/L318F/N151K/N90K/P208A/P217A/Q86G/Q94H/R138H/R169H/T345S) (assay: MHC binding assay (UV-ligand exchange, beta2m ELISA, peptide exchange yield)). Conditions: binding of HLA-class I restricted peptides to HLA-A*02:01, ranged by peptide exchange yield (UV-ligand exchange, β2m ELISA).
Source text: Candidate peptides for T cell based therapies according to the present invention were further tested for their MHC binding capacity (affinity). The individual peptide-MHC complexes were produced by UV-ligand exchange, where a UV-sensitive peptide is cleaved upon UV-irradiation, and exchanged with the peptide of interest as analyzed. Only peptide candidates that can effectively bind and stabilize the peptide-receptive MHC molecules prevent dissociation of the MHC complexes. To determine the yield of the exchange reaction, an ELISA was performed based on the detection of the light chain (β2m) of stabilized MHC complexes. The assay was performed as generally described in Rodenko et al. (Rodenko et al., 2006).
96 well MAXISorp plates (NUNC) were coated over night with 2ug/ml streptavidin in PBS at room temperature, washed 4× and blocked for 1 h at 37° C. in 2% BSA containing blocking buffer. […] Peptide-MHC monomers of the UV-exchange reaction were diluted 100 fold in blocking buffer. Samples were incubated for 1 h at 37° C., washed four times, incubated with 2ug/ml HRP conjugated anti-82m for 1 h at 37° C., washed again and detected with TMB solution that is stopped with […]. Absorption was measured at 450 nm. Candidate peptides that show a high exchange yield (preferably higher than 50%, most preferred higher than 75%) are generally preferred for a generation and production of antibodies or fragments thereof, and/or T cell receptors or fragments thereof, as they show sufficient avidity to the MHC molecules and prevent dissociation of the MHC complexes.
With “254 (TLLAFIMEL; listed as Homo sapiens) [compound 254]” the Peptide exchange was “″+++″ (≥50% = +++)”.
“1 (SLMEPPAVLLL; listed as Homo sapiens) [compound 1]” was tested, and the Peptide exchange was “″+++″ (≥50% = +++)”.
“41 (SLMPHIPGL; listed as Homo sapiens) [compound 41]” was tested, and the Peptide exchange was “″+++″ (≥50% = +++)”.
“125 (VQIHQVAQV; listed as Homo sapiens) [compound 125]” was tested, and the Peptide exchange was “″+++″ (≥50% = +++)”.
For “241 (SLVEVNPAYSV; listed as Homo sapiens) [compound 241]”, the Peptide exchange was “″+++″ (≥50% = +++)”.
With “240 (ILLEQAFYL; listed as Homo sapiens) [compound 240]” the Peptide exchange was “″+++″ (≥50% = +++)”.
For “35 (KINDTIYEV; listed as Homo sapiens) [compound 35]”, the Peptide exchange was “″+++″ (≥50% = +++)”.
“447 (QLVPALAKV; listed as Homo sapiens) [compound 447]” was tested, and the Peptide exchange was “″++″ (≥20% = ++)”.
In the case of “568 (TLYDIAHTPGV; listed as Homo sapiens) [compound 568]”, the Peptide exchange is reported as “″++++″ (≥75% = ++++)”.
For “596 (ALLDQTKTLAESAL; listed as Homo sapiens) [compound 596]”, the Peptide exchange was “″+++″ (≥50% = +++)”.
With “223 (ALLENIALYL; listed as Homo sapiens) [compound 223]” the Peptide exchange was “″+++″ (≥50% = +++)”.
In the case of “584 (ALAEVAAMENV; listed as Homo sapiens) [compound 584]”, the Peptide exchange is reported as “″+++″ (≥50% = +++)”.
In the case of “452 (ILLEHGADPNL; listed as Homo sapiens) [compound 452]”, the Peptide exchange is reported as “″+++″ (≥50% = +++)”.
In the case of “261 (YVLEFLEEI; listed as Homo sapiens) [compound 261]”, the Peptide exchange is reported as “″++″ (≥20% = ++)”.
For “49 (YLPAVFEEV; listed as Homo sapiens) [compound 49]”, the Peptide exchange was “″+++″ (≥50% = +++)”.
In the case of “602 (YLLEQIKLIEV; listed as Homo sapiens) [compound 602]”, the Peptide exchange is reported as “″++++″ (≥75% = ++++)”.
With “177 (YLLPEEYTSTL; listed as Homo sapiens) [compound 177]” the Peptide exchange was “″++++″ (≥75% = ++++)”.
In the case of “543 (GLLPTPITQQASL; listed as Homo sapiens) [compound 543]”, the Peptide exchange is reported as “″+++″ (≥50% = +++)”.
With “510 (KLYSVVSQL; listed as Homo sapiens) [compound 510]” the Peptide exchange was “″++″ (≥20% = ++)”.
With “270 (LLLDEEGTFSL; listed as Homo sapiens) [compound 270]” the Peptide exchange was “″++″ (≥20% = ++)”.
In the case of “228 (AMQEYIAVV; listed as Homo sapiens) [compound 228]”, the Peptide exchange is reported as “″++″ (≥20% = ++)”.
In the case of “486 (AVMESIQGV; listed as Homo sapiens) [compound 486]”, the Peptide exchange is reported as “″+++″ (≥50% = +++)”.
For “450 (FMIDASVHPTL; listed as Homo sapiens) [compound 450]”, the Peptide exchange was “″+++″ (≥50% = +++)”.
For “407 (YLMDLINFL; listed as Homo sapiens) [compound 407]”, the Peptide exchange was “″+++″ (≥50% = +++)”.
With “490 (FLLQHVQEL; listed as Homo sapiens) [compound 490]” the Peptide exchange was “″+++″ (≥50% = +++)”.
“94 (YLIDIKTIAI; listed as Homo sapiens) [compound 94]” was tested, and the Peptide exchange was “″++″ (≥20% = ++)”.
In the case of “159 (GLVGNPLPSV; listed as Homo sapiens) [compound 159]”, the Peptide exchange is reported as “″++++″ (≥75% = ++++)”.
“479 (SLFGNSGILENV; listed as Homo sapiens) [compound 479]” was tested, and the Peptide exchange was “″+++″ (≥50% = +++)”.
“476 (ALMERTGYSMV; listed as Homo sapiens) [compound 476]” was tested, and the Peptide exchange was “″+++″ (≥50% = +++)”.
With “45 (SLWQDIPDV; listed as Homo sapiens) [compound 45]” the Peptide exchange was “″+++″ (≥50% = +++)”.
For “589 (KLYPQLPAEI; listed as Homo sapiens) [compound 589]”, the Peptide exchange was “″+++″ (≥50% = +++)”.
For “131 (FVPPVTVFPSL; listed as Homo sapiens) [compound 131]”, the Peptide exchange was “″++″ (≥20% = ++)”.
With “355 (SIQQSIERLLV; listed as Homo sapiens) [compound 355]” the Peptide exchange was “″++″ (≥20% = ++)”.
In the case of “299 (YLLETSGNL; listed as Homo sapiens) [compound 299]”, the Peptide exchange is reported as “″+++″ (≥50% = +++)”.
For “337 (HLLSELEAAPYL; listed as Homo sapiens) [compound 337]”, the Peptide exchange was “″++++″ (≥75% = ++++)”.
For “456 (LLIGHLERV; listed as Homo sapiens) [compound 456]”, the Peptide exchange was “″+++″ (≥50% = +++)”.
For “515 (LLQELVLFL; listed as Homo sapiens) [compound 515]”, the Peptide exchange was “″+++″ (≥50% = +++)”.
For “318 (GLINTGVLSV; listed as Homo sapiens) [compound 318]”, the Peptide exchange was “″++″ (≥20% = ++)”.
In the case of “432 (TLIEESAKV; listed as Homo sapiens) [compound 432]”, the Peptide exchange is reported as “″++″ (≥20% = ++)”.
“559 (VTVPPGPSL; listed as Homo sapiens) [compound 559]” was tested, and the Peptide exchange was “″++″ (≥20% = ++)”.
With “454 (KLPPPPPQA; listed as Homo sapiens) [compound 454]” the Peptide exchange was “″+++″ (≥50% = +++)”.
“198 (KTINKVPTV; listed as Homo sapiens) [compound 198]” was tested, and the Peptide exchange was “″+++″ (≥50% = +++)”.
For “257 (SIFSAFLSV; listed as Homo sapiens) [compound 257]”, the Peptide exchange was “″+++″ (≥50% = +++)”.
In the case of “266 (KITDTLIHL; listed as Homo sapiens) [compound 266]”, the Peptide exchange is reported as “″+++″ (≥50% = +++)”.
“256 (FLPPEHTIVYI; listed as Homo sapiens) [compound 256]” was tested, and the Peptide exchange was “″+++″ (≥50% = +++)”.
In the case of “92 (YLIPFTGIVGL; listed as Homo sapiens) [compound 92]”, the Peptide exchange is reported as “″++″ (≥20% = ++)”.
In the case of “591 (SMAELDIKL; listed as Homo sapiens) [compound 591]”, the Peptide exchange is reported as “″+++″ (≥50% = +++)”.
With “29 (KMLGIPISNILMV; listed as Homo sapiens) [compound 29]” the Peptide exchange was “″+++″ (≥50% = +++)”.
For “109 (IILSILEQA; listed as Homo sapiens) [compound 109]”, the Peptide exchange was “″++++″ (≥75% = ++++)”.
For “232 (ALLEAQDVELYL; listed as Homo sapiens) [compound 232]”, the Peptide exchange was “″++″ (≥20% = ++)”.
In the case of “523 (YQIPRTFTL; listed as Homo sapiens) [compound 523]”, the Peptide exchange is reported as “″++″ (≥20% = ++)”.
For “120 (ALLGIPLTLV; listed as Homo sapiens) [compound 120]”, the Peptide exchange was “″+++″ (≥50% = +++)”.
For “314 (ALIAEGIALV; listed as Homo sapiens) [compound 314]”, the Peptide exchange was “″+++″ (≥50% = +++)”.
With “488 (FLAEDPKVTL; listed as Homo sapiens) [compound 488]” the Peptide exchange was “″+++″ (≥50% = +++)”.
With “310 (FLVDTPLARA; listed as Homo sapiens) [compound 310]” the Peptide exchange was “″++++″ (≥75% = ++++)”.
For “21 (VLDELDMEL; listed as Homo sapiens) [compound 21]”, the Peptide exchange was “″++″ (≥20% = ++)”.
For “74 (ALLDPEVLSIFV; listed as Homo sapiens) [compound 74]”, the Peptide exchange was “″+++″ (≥50% = +++)”.
“309 (GLFDGVPTTA; listed as Homo sapiens) [compound 309]” was tested, and the Peptide exchange was “″+++″ (≥50% = +++)”.
In the case of “97 (SLINGSFLV; listed as Homo sapiens) [compound 97]”, the Peptide exchange is reported as “″+++″ (≥50% = +++)”.
“403 (KLYDRILRV; listed as Homo sapiens) [compound 403]” was tested, and the Peptide exchange was “″++″ (≥20% = ++)”.
In the case of “276 (ALFTFSPLTV; listed as Homo sapiens) [compound 276]”, the Peptide exchange is reported as “″+++″ (≥50% = +++)”.
In the case of “271 (LVYPLELYPA; listed as Homo sapiens) [compound 271]”, the Peptide exchange is reported as “″+++″ (≥50% = +++)”.
“346 (LLDSKVPSV; listed as Homo sapiens) [compound 346]” was tested, and the Peptide exchange was “″+++″ (≥50% = +++)”.
For “446 (QLIPALAKV; listed as Homo sapiens) [compound 446]”, the Peptide exchange was “″+++″ (≥50% = +++)”.
With “399 (YLFEPLYHV; listed as Homo sapiens) [compound 399]” the Peptide exchange was “″+++″ (≥50% = +++)”.
With “119 (FLYIGDIVSL; listed as Homo sapiens) [compound 119]” the Peptide exchange was “″++++″ (≥75% = ++++)”.
For “379 (IMEGTLTRV; listed as Homo sapiens) [compound 379]”, the Peptide exchange was “″++″ (≥20% = ++)”.
For “409 (LLDAMNYHL; listed as Homo sapiens) [compound 409]”, the Peptide exchange was “″++″ (≥20% = ++)”.
“538 (LLLAHIIAL; listed as Homo sapiens) [compound 538]” was tested, and the Peptide exchange was “″++″ (≥20% = ++)”.
With “210 (LLLNAVLTV; listed as Homo sapiens) [compound 210]” the Peptide exchange was “″++″ (≥20% = ++)”.
With “62 (VLLDVSAGQLLM; listed as Homo sapiens) [compound 62]” the Peptide exchange was “″++++″ (≥75% = ++++)”.
